The text below walks through data of US20160024219A1 (Sanofi, published 2016).

Where a chain is given by its changes, count along the chain named. Values joined by “and” are separate entries in the source; they are usually repeats but may differ in a detail not shown here. Equal values may be shown once.

In test [1] the target is T1, CD52 peptide #741.
T1 construct: also called CD52 peptide #741 chip
The test can be described thus: BIACORE (SPR), CD52 peptide #741 chip, preliminary constant; antibody after 2 weeks at 45C, pH 7.2 in PBS.
Description: (§1) The proteins (85 μg) were diluted in PBS, pH 7.2, to 0.4 mg/ml, and incubated at 45° C. for 4 weeks. Their binding affinity to CD52 peptide was measured on BIACORE™.

In test [2] the target is T1, CD52 peptide #741. In words: BIACORE (SPR), CD52 peptide #741 chip; antibody after 4 weeks at 45C, pH 7.2 in PBS. (In SPR one partner is held on a chip, and binding of the other changes the refractive index at the surface.)
Description: as §1
Test [3] deals with T1, CD52 peptide #741. The test can be described thus: BIACORE (SPR), CD52 peptide #741 chip; antibody after 2 weeks at 45C, pH 7.2 in PBS.
Description: as §1
The target of test [4] is T1, CD52 peptide #741. The test can be described thus: BIACORE (SPR), CD52 peptide #741 chip; week 0, reference of the normalization.
Description: as §1
Test [5] deals with T1, CD52 peptide #741. In words: BIACORE (SPR), CD52 peptide #741 chip, preliminary constant; antibody after 4 weeks at 45C, pH 7.2 in PBS.
Description: as §1
Test [6] deals with T1, CD52 peptide #741. The test can be described thus: BIACORE (SPR), CD52 peptide #741 chip, preliminary constant; antibody at week 0 (before incubation).
Description: as §1
Test [7] concerns the target T2, CD52 peptide mimotope (CGQNDTSQTSSPSAD).
T2 construct: Immobilized at a low level on a CM5 chip via thiol chemistry using the N-terminal Cys; also called CD52 peptide chip
T2 peptide: CGQNDTSQTSSPSAD
In words: BIACORE (SPR), CD52 peptide, purified antibody; concentrations used for fit 7.5nM - 0.2nM.

Test [8] has as its target T1, CD52 peptide #741. In words: BIACORE (SPR), CD52 peptide #741 chip, apparent KD; antibody after 2 weeks at 45C, 3 component buffer (graph title: 45C pH7.4).
Excerpt: (§2) Aliquots were taken at Week 2 and Week 4 (T2 and T4) to assess their affinity to CD52 peptide by BIACORE™.
Test [9] has as its target T1, CD52 peptide #741. The test can be described thus: BIACORE (SPR), CD52 peptide #741 chip, apparent KD; antibody after 2 weeks at 37C, 3 component buffer pH 7.5.
Excerpt: as §2
The target in test [10] is T2, CD52 peptide mimotope (CGQNDTSQTSSPSAD). The test can be described thus: BIACORE (SPR), CD52 peptide, antibody purified from CHO cells; inset table.
Description: (§3) Several concentrations of anti-CD52 antibody made in HBS-EP running buffer (1 to 20 nM) were injected over the surface to monitor the binding. Kinetic analysis was performed using Scrubber2 software.
Test [11] has the same target. In words: BIACORE, CD52 peptide on CM5 chip; antibody from CHO; CHO-produced Ab26.
Description: as §3
The target of test [12] is T1, CD52 peptide #741. The test can be described thus: BIACORE (SPR), CD52 peptide #741 chip, apparent KD; table 'after 37C incubation', T0, 3 component buffer pH 7.5.
Excerpt: as §2
The target of test [13] is T1, CD52 peptide #741. The test can be described thus: BIACORE (SPR), CD52 peptide #741 chip, apparent KD; antibody after 4 weeks at 37C, 3 component buffer pH 7.5.
Excerpt: as §2
For test [14], the target named is T2, CD52 peptide mimotope (CGQNDTSQTSSPSAD). In words: BIACORE, CD52 peptide on CM5 chip; antibody from HEK293.
Description: as §3
The target is the same in test [15]. In words: BIACORE (SPR), CD52 peptide, purified antibody; concentrations used for fit 240nM - 0.4nM.
Test [16] has the same target. The test can be described thus: BIACORE, CD52 peptide on CM5 chip; antibody from CHO; CHO-produced Ab1; higher concentrations, up to 1900 nM.
Description: as §3
For test [17] the target is unchanged. In words: BIACORE, CD52 peptide on CM5 chip; antibody from HEK293; HEK293-produced Ab1; higher concentrations, up to 1900 nM.
Description: as §3
For test [18] the target is unchanged. In words: BIACORE, CD52 peptide on CM5 chip.
Description: as §3
Test [19] has the same target. The test can be described thus: BIACORE (SPR), CD52 peptide, purified antibody; concentrations used for fit 240nM - 1.9nM.
Test [20] has the same target. In words: BIACORE (SPR), CD52 peptide, purified antibody; concentrations used for fit 240nM - 1.9nM; sheet's note to the asterisk: for more accurate KD, a higher concentration range should be used.
Test [21] has the same target. In words: BIACORE (SPR), CD52 peptide, antibody purified from CHO cells; inset table, column ka; the sheet prints no unit, unit from Table 5 of the text.
Description: as §3
Test [22] has the same target. The test can be described thus: BIACORE (SPR), CD52 peptide, antibody purified from CHO cells; inset table, column kd; the sheet prints no unit, unit from Table 5 of the text.
Description: as §3
The target is the same in test [23]. The test can be described thus: BIACORE (SPR), CD52 peptide, purified antibody; concentrations used for fit 240nM - 0.4nM; sheet's note to the asterisk: for more accurate KD, a higher concentration range should be used.

B1: Ab11 (antibody, human IgG1, kappa, V domains shown)
VH: EVQLVESGGGLVQPGGSLRLSCAASGFPFSNYWMNWVRQAPGKGLEWVGQIRLKSNNYATHYAESVKGRFTISRDDSKNSLYLQMNSLKTEDTAVYYCTPIDYWGQGTTVTVSS
VL: DIVMTQTPLSLSVTPGQPASISCKSSQSLLYSNDKTYLNWVLQKPGQSPQRLIYLVSKLDSGVPDRFSGSGSGTDFTLKISRVEAEDVGVYYCVQGSHFHTFGQGTKLEIKR
Turning to B1, the Kd in [1] turned out to be 16.5 nM; in [5], 8.85 nM; in test [6], 4.12 nM. The figures for the “%T0 (affinity relative to T0)” value in test [2], in [3] and in [4] were 46.5%, 24.9% and 100%, respectively.

B2: Ab20 (antibody, human IgG1, kappa, V domains shown)
VH: B1 VH
VL: B1 VL with D34Q
Turning to B2, the Kd in test [1] turned out to be 6.8 nM; in [6] it was 3.49 nM.

B3: Ab21 (antibody, human IgG1, kappa, V domains shown)
VH: B1 VH
VL: B1 VL with D34R
In the case of B3, the Kd in test [5] was 4.15 nM; in test [6], 2.05 nM.

B4: Ab14 (antibody, human IgG1, kappa, V domains shown)
VH: B1 VH
VL: B1 VL with D34H
As for B4, the Kd in [1] stood at 8.97 nM; in test [5], 33.3 nM; in test [6], 3.5 nM.

B5: Ab16 (antibody, human IgG1, kappa, V domains shown)
VH: B1 VH
VL: B1 VL with D34K
Regarding B5, the Kd in [1] is 7.17 nM; in test [6], 2.77 nM.

B6: Ab22 (antibody, human IgG1, kappa, V domains shown)
VH: B1 VH
VL: B1 VL with D34S
As for B6, the Kd in test [5] amounted to 187 nM; in test [6] it was 2.44 nM.

B7: Ab26 (antibody, human IgG1, kappa, V domains shown)
VH: B1 VH
VL: B1 VL with D34G
notes: Humanized anti-human CD52 monoclonal antibody; made in HEK293 and in CHO cells; also called CTL; CTL1
For B7, the Kd in test [7] is 2.4 nM and 2.8 nM; in test [1] it was 13.4 nM; in test [8] it was 28 nM; in [9], 10 nM and 8.9 nM; in [10], 2.61 nM; in test [11], 2.6 nM. Also, the Kd in test [12] is 4.3 nM and 4.2 nM; in test [13] it was 17.4 nM and 18.3 nM; in [5] it was 25.4 nM; in test [14] it was 1.7 nM and 2.2 nM; in [6] it was 3 nM.

B8: Ab12 (antibody, human IgG1, kappa, V domains shown)
VH: B1 VH
VL: B1 VL with D34E
In test [15], B8 had a Kd of 39.8 nM, a koff of 0.045 s⁻¹ and a kon of 1.1e+06 M⁻¹ s⁻¹.

B9: Ab1 (antibody, human IgG1, kappa, V domains shown)
VH: B1 VH
VL: B1 VL with N33D, D34G
notes: made in HEK293 and in CHO cells
As to B9, the Kd in [16] was 1250 nM; in [17], 1480 nM; in test [20] it was 366 nM; in test [10] it was 1250 nM. For the same molecule, the koff in test [16] worked out at 0.383 s⁻¹; in [17] it was 0.58 s⁻¹; in [19] it was 0.421 s⁻¹; in [22], 0.383 s⁻¹. Moreover, the kon in test [16] is 300000 M⁻¹ s⁻¹; in test [17], 400000 M⁻¹ s⁻¹; in [19], 1.1e+06 M⁻¹ s⁻¹; in [21], 306000 M⁻¹ s⁻¹. In addition, in test [18], the “fold reduction in affinity compared to Ab26” value was over 400 fold.

B10: Ab10 (antibody, human IgG1, kappa, V domains shown)
VH: B1 VH
VL: B1 VL with D34A
In the case of B10, the figures for the Kd in test [7], in test [5] and in test [6] were 5 nM, 144 nM and 5.63 nM, respectively.

B11: Ab24 (antibody, human IgG1, kappa, V domains shown)
VH: B1 VH
VL: B1 VL with D34V
On to B11, for which the Kd in [7] came out at 5.6 nM; in [1] it was 16.9 nM; in test [9], 10.5 nM; in test [12] it was 7 nM; in test [13], 11.3 nM; in test [5], 17.2 nM. In [6], this molecule registered a Kd of 5.15 nM. The molecule further registered a koff in test [7] of 0.019 s⁻¹. In test [7], this molecule yielded a kon of 3.4e+06 M⁻¹ s⁻¹. Moreover, the entries for the “%T0 (affinity relative to T0)” value in test [2], in test [3] and in test [4] were 29.8%, 30.5% and 100%, respectively.

B12: Ab3 (antibody, human IgG1, kappa, V domains shown)
VH: B1 VH
VL: B1 VL with N33K, D34G
notes: made in HEK293 cells
In the case of B12, in test [15], the Kd was 65.8 nM, the koff was 0.198 s⁻¹ and the kon was 3.1e+06 M⁻¹ s⁻¹.

B13: Ab25 (antibody, human IgG1, kappa, V domains shown)
VH: B1 VH
VL: B1 VL with D34Y
Consider B13, for which the Kd in test [23] was 111 nM. Further, in test [15], the koff was determined as 0.073 s⁻¹ and the kon was 700000 M⁻¹ s⁻¹.

B14: Ab4 (antibody, human IgG1, kappa, V domains shown)
VH: B1 VH
VL: B1 VL with N33Q, D34G
notes: made in HEK293 cells
In [19], B14 yielded a koff of 0.284 s⁻¹ and a kon of 1.3e+06 M⁻¹ s⁻¹. In test [20], this molecule gave a Kd of 222 nM.

In general, koff refers to a measure of how fast the partners let go of each other. A word on the kon: it is a measure of how fast the partners come together. The low end stands for slow association, the high end for fast association.
